Measurements taken from US20150126390A1.

molecular target: tau-CFP/YFP protein biosensors (UniProt P10636); experiment: cell-based or functional assay
Sequence (P10636 561-689, form in doubt): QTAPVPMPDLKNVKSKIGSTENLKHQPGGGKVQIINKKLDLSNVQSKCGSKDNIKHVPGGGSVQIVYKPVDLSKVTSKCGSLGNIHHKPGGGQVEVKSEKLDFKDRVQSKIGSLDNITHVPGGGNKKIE

recombinant full-length (2N,4R) tau fibrils, preparation A (8 µM heparin, 37° C.), sequence (P10636 other isoform, or with tags, fused parts or gaps limits assumed): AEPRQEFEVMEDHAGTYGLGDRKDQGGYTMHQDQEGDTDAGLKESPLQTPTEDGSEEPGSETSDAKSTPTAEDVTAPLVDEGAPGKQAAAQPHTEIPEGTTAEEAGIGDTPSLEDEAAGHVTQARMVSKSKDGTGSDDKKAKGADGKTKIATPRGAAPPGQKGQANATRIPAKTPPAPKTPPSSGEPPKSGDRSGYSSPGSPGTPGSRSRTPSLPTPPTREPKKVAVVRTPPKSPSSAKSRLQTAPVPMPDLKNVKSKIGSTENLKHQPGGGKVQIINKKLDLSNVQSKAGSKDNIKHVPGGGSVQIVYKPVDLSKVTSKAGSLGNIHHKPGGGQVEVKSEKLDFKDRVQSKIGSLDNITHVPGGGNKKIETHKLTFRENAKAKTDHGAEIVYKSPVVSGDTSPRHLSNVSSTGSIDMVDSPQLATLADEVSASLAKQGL
recombinant full-length (2N,4R) tau fibrils, preparation C (50 µM octadecyl sulfate, 37° C.), sequence (P10636 other isoform, or with tags, fused parts or gaps limits assumed): as above
recombinant full-length (2N,4R) tau fibrils, preparation B (8 µM heparin, 22° C.), sequence (P10636 other isoform, or with tags, fused parts or gaps limits assumed): as above

Substance	EC50 (pM) of seeding, FRET flow cytometry in biosensor cell line	Plateau (fold increase) of seeding, FRET flow cytometry in biosensor cell line (fold increase)
recombinant full-length (2N,4R) tau fibrils, preparation A (8 µM heparin, 37° C.) (from UniProt P10636 2-441)	< 1 pM	6.67
recombinant full-length (2N,4R) tau fibrils, preparation B (8 µM heparin, 22° C.) (from UniProt P10636 2-441)	4.3 pM	6.55
recombinant full-length (2N,4R) tau fibrils, preparation C (50 µM octadecyl sulfate, 37° C.) (from UniProt P10636 2-441)	141 pM	4.19
